Publication PMC7939443

Experiments:
[1] = target: human poly(C)-binding protein 2 (PCBP2), full length, wild type (human) (UniProt Q15366); assay: AUC
[2] = target: human poly(C)-binding protein 2 (PCBP2), full length, wild type (human) (UniProt Q15366); assay: SAXS
nsp1β WT = target: T1, nsp1β WT (PRRSV isolate SD01-08 (Betaarterivirus …, UniProt Q04561 181-385)); assay: EMSA; up to 20-fold molar excess; conditions: protein: recombinant; tags: GST tag removed with HRV 3C protease; single strand
T1 sequence: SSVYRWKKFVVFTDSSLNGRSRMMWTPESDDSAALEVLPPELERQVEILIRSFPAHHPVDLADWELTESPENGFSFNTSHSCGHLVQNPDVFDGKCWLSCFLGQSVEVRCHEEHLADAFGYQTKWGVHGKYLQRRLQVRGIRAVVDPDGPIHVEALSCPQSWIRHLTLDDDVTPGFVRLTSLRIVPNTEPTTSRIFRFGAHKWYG

PCBP2 WT [3] = target: T2, PCBP2 WT (Homo sapiens, UniProt Q15366 1-365); assay: EMSA; seen from 8-fold, strong at 20-fold molar excess; conditions: protein: recombinant; tags: N-terminal polyHis; single strand
nsp1β WT;PCBP2 WT [4] = target: T3, nsp1β WT;PCBP2 WT (PRRSV isolate SD01-08 (Betaarterivirus …, UniProt Q04561;Q15366 181-385;1-365, |)); assay: EMSA; supershift relative to PCBP2 alone; complex also purified by SEC; conditions: protein: recombinant;recombinant; tags: GST tag removed with HRV 3C protease;N-terminal polyHis; copies: 1;1; single strand
nsp1β WT;PCBP2 WT [5] = target: T3, nsp1β WT;PCBP2 WT; assay: EMSA; large molar excess of both proteins; conditions: protein: recombinant;recombinant; tags: GST tag removed with HRV 3C protease;N-terminal polyHis; copies: 1;1; single strand
nsp1β WT;PCBP2 WT [6] = target: T3, nsp1β WT;PCBP2 WT; assay: EMSA; conditions: protein: recombinant;recombinant; tags: GST tag removed with HRV 3C protease;N-terminal polyHis; copies: 1;1; single strand
PCBP2 WT [7] = target: T2, PCBP2 WT; assay: EMSA; no appreciable binding at 28-fold molar excess; conditions: protein: recombinant; tags: N-terminal polyHis; single strand

T3 sequence (Q15366 whole entry, one chain of several): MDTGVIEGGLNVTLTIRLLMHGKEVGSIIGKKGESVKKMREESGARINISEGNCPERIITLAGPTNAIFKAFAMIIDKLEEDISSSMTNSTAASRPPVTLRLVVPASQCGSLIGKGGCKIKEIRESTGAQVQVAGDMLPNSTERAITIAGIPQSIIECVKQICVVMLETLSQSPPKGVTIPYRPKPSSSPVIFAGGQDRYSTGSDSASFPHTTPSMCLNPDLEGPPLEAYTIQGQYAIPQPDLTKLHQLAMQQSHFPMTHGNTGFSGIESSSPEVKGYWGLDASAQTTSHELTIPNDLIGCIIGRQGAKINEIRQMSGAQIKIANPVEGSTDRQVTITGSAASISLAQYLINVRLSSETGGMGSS
PRRSV nonstructural protein 1β (nsp1β), isolate SD01-08, wild type (natural protein), sequence (A0MD28 181-385 limits assumed): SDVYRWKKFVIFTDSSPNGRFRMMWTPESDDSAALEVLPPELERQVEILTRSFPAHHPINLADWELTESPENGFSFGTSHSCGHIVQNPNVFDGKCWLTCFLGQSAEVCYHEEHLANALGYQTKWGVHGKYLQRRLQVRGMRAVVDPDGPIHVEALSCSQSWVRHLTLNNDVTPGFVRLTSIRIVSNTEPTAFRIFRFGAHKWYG
human poly(C)-binding protein 2 (PCBP2), full length, wild type (human), sequence (Q15366 whole entry): as the sequence (Q15366 whole entry, one chain of several) above
T2 sequence (Q15366 whole entry): as the sequence (Q15366 whole entry, one chain of several) above

PRRSV nonstructural protein 1β (nsp1β), isolate SD01-08, wild type (natural protein)
stoichiometry N [1]: 1
stoichiometry N [2]: 1

GGGTTTTTGAAGTTTACTCCCATCTCCCAGCTTT (ssDNA) [34-nt PRRSV ssDNA]
binding result (nsp1β WT): no binding
binding result (PCBP2 WT [3]): binds
binding result (nsp1β WT;PCBP2 WT [4]): binds

GGGTTTTTGAAGTTTACTGAAATATGGCAGCTTT (ssDNA) [34-nt CC2 ssDNA]
binding result (nsp1β WT;PCBP2 WT [5]): no binding

GGGUUUUUGAAGUUUACUCCCAUCUCCCAGCUUU (ssRNA) [34-nt PRRSV ssRNA]
binding result (nsp1β WT;PCBP2 WT [6]): binds
binding result (PCBP2 WT [7]): no binding
